# Experimental data from the nanobody polyreactivity screen of Harvey et al. (2022).
# Assay: yeast display, Sf9 membrane polyspecificity reagent, FACS + sequencing; frameworks hold sequencing errors
# Outline: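 Using colony PCR, genes from sorted yeast display clones were amplified, then sequenced on MiSeq at 2 × 250 and filtered by CDR length. The clones had been stained with 10% biotinylated, detergent-solubilized Sf9 membrane reagent for 1 hour at 4 °C and sorted by FACS into low and high (top ~1%) gates on anti-HA and streptavidin fluorescence. Polyreactivity labels come from the gate of origin.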
row,Sequence,polyreactivity (PSR sort gate)
1,QVQLEESGVGLVQAGGSLRLSCAASGSIFYYNAMGSYRQPHGKERDLVAAISWGDGITYYADSVKGRFTISRDNGKNSVYLPMNSLKPEDTAVYYWAVDYYYLPYEYWGKGTQVTVSS,high polyreactivity
2,QVQLEESPGGLVQAGGSLRLSCAASGRIIGRYAMGWTRQAPGKERELVAAISYRGGSTYYADSVKGRFTISRDNAKNTVYLQMNSLKPEDTAVYYCAKDSRSWPFKYDYWGQGTQVTVSS,high polyreactivity
3,QVQLEESVGGLVQAGGSLRIICAASGSIFSVNSIGWSRQAPGKERELVAAITRDSGSTNYADSVKGRFTISRDNAKNTVYLQMNSLKPEDTAVYYCAADFYYNVSTTIVNFSYDYWGHGTQVTVSS,high polyreactivity
4,QVQLEETGGGLVHAGGILRLSCAASGIIYVVNAMGWYRQAPAKERELVAAISRNGGSTYYADSVKGRFTISRDNAKNTVYLQMNSLIPEDTAVYYCADRTVGRNAGFDYWGQVTQVTVSS,high polyreactivity
5,QVQLESGGGLVQAGGSLRISCAASGSTFVTYDMGWDRQAPGKEREIVAAIDWSGDSTYADSVKGRFTISRDNAKNTVYLQMNSLIPEDTAVYSCAADYDNYGDVYPYYTAGYGYWGQGTQVTVSS,low polyreactivity
6,QVQLEVSGGVLVQPGGSIRLSCAASGFIFGFYAKGWYRQAPGKERELVASISGRGGRTSYADSVKGRFTISRDNAKNTVYLQMNSLKPEDTAVYYCNKAGYGVSRKYDYWGQGTQVNVSS,high polyreactivity
7,QVQLGDSGGGLVQAGGSLRLICAASGLTIPDNTMGWYRQAPGKERELVSAIDWSGGGTDYADSVKGRFTISRDNAKNTVYLQMNSLYPVDTAVYYCATSWYIYPYDDWGQGTQVTVSS,low polyreactivity
8,QVQLGESAGGLVQAGGSLRLSCAASGFTFYPYAMGWYRQAPGKEREFVAAITWRGASTYYADSVKGRFTISRDNGKNTVYLQMNSLKPEDTAVYYCNARWRVPRGYDYWGQGTQVTVSS,high polyreactivity
9,QVQLGESGGALVQAGGSLRLSCAASGFTFKYYAMGWYRQAPGKERELVAAISRGGSTYYADSVKGRFTISRDNAKNTVYLQMNILKPEDTAVYYCAARYVRVGYDYWGQGTQVTVSS,high polyreactivity
10,QVQLGESGGGFVQAGGSLRLSCAASGFIFAPYAMGWYRHAPGKERELDAFISWSGGRTYYADSVKGRFTLSRDKAKNTVYLLMNSLNPEDTAVYYCNARGSRRGGPGYEYWGQGTQVTVSS,high polyreactivity
11,QVQLGESGGGLVHAGGSLRLSCAASGFIFGYYAMGWYRQAPGKERELVAAISQSTGSTYYADSVKGRFTISRDTAKNTVYLQMNSLKPEATAVYYCNAEGPEFTTWGYVYWAWGYGYWGQGTQVTVSS,low polyreactivity
12,QVQLGESGGGLVLAGGSLRLSCAASGYDMGWYRHAPGKESELVAAISRGGSTSYADSVKGRFTISRDNAKNTVYLQMNSLKPEDTAVYYCAARYGSYRVGYDYWGQGTQVTVSS,low polyreactivity
13,QVQLGESGGGLVLAGGSLRLSCAASGYIFRAYAMGWYRQAPGKERELVAAISSRGGSTYYADSVKGRFTSSRDYAKNTVYLQMNSLKPEDTEVYYCAAAYRQPYIGYGYWGQGTQVTVSS,high polyreactivity
14,QVQLGESGGGLVQAGGRLRLRCAASGIIFTKYAMGLYRQAPGKERELVAAITASGGSTYYADSVKGRFTISRDTAKNTVYLQMNSLKPEDTAVYYCAARSPSRYGYWGQGTQVTVSS,high polyreactivity
15,QVQLGESGGGLVQAGGSIRLSCAASGRTFYGYAMGWYRQAPGTERELVAAISYSGARTYYADSVKGRFTISRDNAKHTVNLQMNSLKPEDTAVYYCAATRAYWIGHLDYWGQGTQVTVSS,high polyreactivity
16,QVQLGESGGGLVQAGGSLRLICAASGSTTPGNAMGWYRQAPGKQREFDADINSGGGTNYADSVKGRFTISRDNAKNNVYLQMNSLKPEDTAVYYCAKGYRRSFIGYWYLKYGYWGQGTQVTVSS,high polyreactivity
17,QVQLGESGGGLVQAGGSLRLRCAASGSNFRTYVMGWYRQGPGKERELVAAISRRGGSTYYADSVKGRFTISRDNAKNTVYLPMNSLKPEDTAVYNCAAEDEYSLEYSTLDYWGQGTQVTVSS,high polyreactivity
18,QVQLGESGGGLVQAGGSLRLSCAASGFTFYRYTLGWYRQAPGKERELVASITRRGGSTYYADSVKGRFTISRDNAKNYVYLQMNSLKPEDTAVYDCNAATPVWQSGTYEYWGQGTQVTVSS,high polyreactivity
19,QVQLGESGGGLVQAGGSLRLSCAASGGILYWYAMGWYRQAPGKERELVAAIDGTGGSTYYADSVKGRFTISRDNAKNTVYFQMYSLRPEDTEVYYCDATRPSIVTGNVKNGYWGHGTQVTVSS,low polyreactivity
20,QVQLGESGGGLVQAGGSLRLSCAASGLIIFSYAMGWSRQAPGKELEMVAAISRSGGRTYFADSVKGRFTISRDNAKNTVFLQMNRLKPEDTAVYYCAADDPYTPQYPDVTYDFWGQGTQVTVSS,high polyreactivity
21,QVQLGESGGGLVQAGGSLRLSCAASGNTFFTYAMGWYRQAPGKERELVAVITSVGSTNYADSVKGRFTISRDNAKNTVYLQMNSLKPEDTAVYYCAARTRRGLARYDYWGHGTQVTVSS,high polyreactivity

row,Sequence,polyreactivity (PSR sort gate)
1,QVQLGESGGGLVQAGGSLRLSCAASGRIFISKTMGWSRQAPGKERELVAAITSSGRTYYADSVKGRFTISRDNAMNTVFFQMNSGKPEDTADYYCAADSYSGNDRRRGFDYWGQGTQVTVSS,low polyreactivity
2,QVQLGESGGGLVQAGGSLRLSCAASGRIFRVNTMGWYRQAPGKERELVAAIRSSGTRTYYAVSVKGRFTISRDNAKNTVYLQMNSLKPEDTAVYYCAATGRRGSGYYYWGQGTQVTVSS,high polyreactivity
3,QVQLGESGGGLVQAGGSLRLSCAASGRIFRYYAMGWYRQAPGKERELVAAISSSGGSTYYADSVKGRFTISRDNAKNTVYLQMNSLKPEDTAVYYCNTVGSVGKKRDYWGQGTQVTVSS,high polyreactivity
4,QVQLGESGGGLVQAGGSLRLSCAASGRIFSYNAMRWYRPAPGKERELVAGITSGGRTYYADSVKGRFTISRDNAKNTVYLQMNSLKPEDTAVYYCAARYVPARTRYYFWGQGSQVTVSS,high polyreactivity
5,QVQLGESGGGLVQAGGSLRLSCAASGRIFVYNAMGWYRQAPGKERQLVAAIRNDGSTNYADSVKGRFTISRDNAKNTVYFQMNSLKPEDTAVYYCAKSVTGWRGLWYTPRNYYWGQGTQVTVSS,high polyreactivity
6,QVQLGESGGGLVQAGGSLRLSCAASGRIFYLNAMGWYRQAPGKERELVAVITGNAGCTYYADSVKGRFTISRDHAKNTVYLQMNSLKPEDTAVYYCNALRLVPWSDALYDYWGQGTQVTVSS,low polyreactivity
7,QVQLGESGGGLVQAGGSLRLSCAASGRIVRFYAMGWYRQAPGKERELVATISRSGGSTYYADSVKGRFTISRDNAKNTVNIQMNSLKPEDTAVYYCARLVGSRYGHWGQGTQVTVSS,high polyreactivity
8,QVQLGESGGGLVQAGGSLRLSCAASGRTFGLYAMGWYRQAPGKERELVAAISWGGGRTYYADSVKGRFTISRDNAKNTVYLQMNSLKPEDTAVYYCNAVYSPRYYVGGYDYWGQVTQVTVSS,high polyreactivity
9,QVQLGESGGGLVQAGGSLRLSCAASGRTFHGYAMGWYRQAPGKERELVARINWSDGRTYYADSVKGRFTISRDNAKNTVYLQMNSLKPEDTAVYYCAADKTVSYAPAWYYYWGQGTQVTVSS,low polyreactivity
10,QVQLGESGGGLVQAGGSLRLSCAASGRTFVDNHMGWYRQAPGKERELVAAITWRGGGTYYADSVKGRFTISRYNAKNTVYLQMNSLKPEDTAVYYSAADQRPPFVEPRGLSTGEFDYWGQGTQVTVSS,low polyreactivity
11,QVQLGESGGGLVQAGGSLRLSCAASGSIFEVYAMGWYRQAPGKERELVAAINYTGGSTYYADSVKGRFTISRDNAKNTVYLQMNSLKPEDTAVYYCARDTSGIGTRYDYWGQGTQVTLSS,low polyreactivity
12,QVQLGESGGGLVQAGGSLRLSCAASGSTFPVYAMGWSRQAPGKEWELVAAISSGGTTNYADSVKGRFTISRDNAKNTVYLQRNSLKPEDTAVYYCAADDWYYHFLVSSSAFDYWGQGTQVTVSS,high polyreactivity
13,QVQLGESGGGLVQAGGSLRLSCAASGSTFVWYAMGWYRQAPGKERELVANISGSGGSTYYADSVKGRFTISRDNAKNTVYLQMNSLKPEDNAVYYCAAQRQWRTQYDDDYWGQGTQVTVSS,low polyreactivity
14,QVQLGESGGGLVQAGGSLRLSCAASGTIYGYVMGWYRQAPGKERVLVAAISSSGGSTYYADSVKGRFTISRDNAKNTVYLQMNSLKPEDTAVYYCAKGLTYARRYGYWGQRTQVTVSS,high polyreactivity
15,QVQLGESGGGLVQAGGSLRLSCAASGYIFAYYAMGWSRQAPGKERELVAAISRSGGSTYYADSVKGRFTISRDNAKNTVYLEMISLKPEDTAVSYCAARSTGNYEREYNYWGQGTQVTVSS,high polyreactivity
16,QVQLGESGGGLVQAGGSLRLTCAASGIIFPYYAMGWYRQATGKERELVAGISSSGGITYADSVKGRFTISRDNGKNTVYLQMNSLKPEDTAVYYCNAEYQWLEYDYCGQGTQVTVSS,low polyreactivity
17,QVQLGESGGGLVQAGGSLRLTCAASGITFAYYVMGWYRKAPGKERELVAASTRSGDFTSYADSVKGRFTISRDNAKNTVYFQMNSLKPEDTAVYYCNARRGYQSRRYNYWGQGTQVTVSS,high polyreactivity
18,QVQLGESGGGLVQAGGSLRLTCAASGITFGPYAMGWSRQAPGKERELVAAITWRGGSTYYADSVKGRFTISRDNAKNTVYLQMNSLKPEDTAVYYCNAKTEYGSPRGYGSWGQGTQVTVSS,low polyreactivity
19,QVQLGESGGGLVQAGGSLRVICAASGFIFRDYAMGWYIQAPGKERELFAAIRSTTGSTYYADSVKGRFTISRDNSKNTVYLQMNSLKPEDTAVYYCAAAYPFYADMDYSGQGTQVTVSS,low polyreactivity
20,QVQLGESGGGLVQAGGSRRFSSAASGSIVKAYAMGWYRPAPGKDRELVAAISTSDGSTYYADSVKGRFTISRDNAKNTVYLQMNSLKPEDTAVYYCATEYDYWDDSYDSWGQGTQVTVSS,low polyreactivity
